Among the data in the supplement of paper PMC10567573 are protein stability index values, retold here.

± gives the standard deviation.

The series in a line: protein stability index of a GFP-peptide fusion (GPS, HEK-293T) (PSI 1-6); higher = more stable. The conditions noted are these: c terminus: a fixed tail appended.
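Further: 24-mer peptide tiles fused after GFP, lentivirally expressed, FACS-sorted into six equal bins by GFP/DsRed ratio, decoded by Illumina sequencing, PSI is the read-weighted mean bin number.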

NYYEVGSNRGAYVKLGPALTPHIV [PPEF2]: the protein stability index (treatment: DMSO) was found to be 2.19 ± 0.2 and the protein stability index (treatment: MLN4924 1 uM, 8 h) was 2.55 ± 0.32.
Take DSHVSSCSEDWVGYQRKCYFISTV [CD69]: the protein stability index by setting is: (treatment: DMSO) 2.46 ± 0.88; (treatment: MLN4924 1 uM, 8 h) 2.65 ± 0.6.
LASSLGNLNAATDDPENKKTSSSS [CDC14A]: the protein stability index by setting is: (treatment: DMSO) 5.43 ± 0.15; (treatment: MLN4924 1 uM, 8 h) 5.53 ± 0.15.
In the case of QPPPQEEPGTPSSSPDDKLLTSPR [KLHL14], the protein stability index runs as follows: (treatment: DMSO) 5.52 ± 0.16; (treatment: MLN4924 1 uM, 8 h) 5.48 ± 0.15.
Regarding VLSDINLKKGESECQYYIDKLEYL [NET1], the protein stability index is, setting by setting: (treatment: DMSO) 2.72 ± 0.18; (treatment: MLN4924 1 uM, 8 h) 2.94 ± 0.33.
Regarding LGSQIKSLCNLEESITSAGRDDLE [FAM98B], the protein stability index is, setting by setting: (treatment: DMSO) 4.63 ± 0.3; (treatment: MLN4924 1 uM, 8 h) 4.74 ± 0.17.
Take DTGHDSDKSDQSLPNASADSLGGS [TRAF3IP2]: the protein stability index runs as follows: (treatment: DMSO) 5.35 ± 0.42; (treatment: MLN4924 1 uM, 8 h) 5.51 ± 0.18.
The matching figures for ELKLGRKVPESLVRSLRGEEPVPR [LURAP1L]: 3.85 ± 0.25 and 4.16 ± 0.33.
On the same counts, the results for GLGNIWRFPYLCQKNGGGAYLVPY [SLC6A17] are 2.44 ± 0.43 and 2.54 ± 0.49.
As for SHWDLNHTHPSACQGQRLFEKLLQ [PLD5], the protein stability index runs as follows: (treatment: DMSO) 2.56 ± 0.43; (treatment: MLN4924 1 uM, 8 h) 2.54 ± 0.3.
As for LLLLLPTLQSITWQMIEQIQFIKL [HNF4A], the protein stability index reads like this: (treatment: DMSO) 3.58 ± 0.39; (treatment: MLN4924 1 uM, 8 h) 3.28 ± 0.28.
The matching figures for DVTSGDHGDYFRLLLPGIYTVSAT [CPN1]: 2.29 ± 0.57 and 2.02 ± 0.23.
The matching figures for LAPIHKLEEALYEYQPLQIETYGP [MNAT1]: 2.41 ± 0.46 and 2.71 ± 0.49.
On the same counts, the results for TSAAALSPMSAATLGGLNPSPSEV [SMTNL2] are 4.61 ± 0.21 and 4.62 ± 0.31.
As for EQLSGAGYRVSAALEEADKMFLRT [EID1], the protein stability index worked out at 3.72 ± 0.22 (treatment: DMSO) and 4.1 ± 0.43 (treatment: MLN4924 1 uM, 8 h).
Consider LREERKKAKKNKDKYVGVSSDSVG [CLINT1], for which the protein stability index turned out to be 4.95 ± 0.17 (treatment: DMSO) and 5.09 ± 0.15 (treatment: MLN4924 1 uM, 8 h).
DAPLPGSKAKPKPPKQAQKEQRKQ [TBC1D10A]: the protein stability index by setting is: (treatment: DMSO) 5.45 ± 0.087; (treatment: MLN4924 1 uM, 8 h) 5.31 ± 0.18.
The matching figures for RDLKLCRFVFADRERKKLVLENLE [TRIB3]: 2.36 ± 0.23 and 2.51 ± 0.25.
As for VTTHQPTNLVLPSNGSMHNYCPQQ [EDNRA], the protein stability index was determined as 3.75 ± 0.2 (treatment: DMSO) and 3.77 ± 0.056 (treatment: MLN4924 1 uM, 8 h).
On the same counts, the results for AAIVVNGHGMTPLKVAAESCKADV [FEM1B] are 3.38 ± 0.39 and 3.3 ± 0.35.
As for APAMYDDESAIDFSAYIDSMAAVP [CEBPD], the protein stability index is, setting by setting: (treatment: DMSO) 4.32 ± 0.27; (treatment: MLN4924 1 uM, 8 h) 3.62 ± 0.15.
The matching figures for CHPDDQFTTSILRHWCMKHDELLA [INTS3]: 3.03 ± 0.28 and 3.06 ± 0.41.
The matching figures for LRDIRAQYESIAAKNLQEAEEWYK [PRPH]: 4.24 ± 0.24 and 4.33 ± 0.41.
PSLDSRQRLDYEREIQPTAILSLD [SPRY1]: the protein stability index was determined as 4.39 ± 0.16 (treatment: DMSO) and 4.53 ± 0.22 (treatment: MLN4924 1 uM, 8 h).
The matching figures for MGQHISLAPIHKLEEALYEYQPLQ [MNAT1]: 3 ± 0.29 and 3 ± 0.048.
For the sequence VFYCDPCRLRCHPPRGPLAKHRLV [TRIM9], the protein stability index is 2.19 ± 0.34 (treatment: DMSO) and 2.36 ± 0.29 (treatment: MLN4924 1 uM, 8 h).
Consider NSEDIFLLLCLKVDNHFNLLTTSP [TRIM43], for which the protein stability index runs as follows: (treatment: DMSO) 2.58 ± 0.33; (treatment: MLN4924 1 uM, 8 h) 2.31 ± 0.67.
The matching figures for LHVNGESLEMDSDEDDSEELEEDD [EHMT1]: 5.41 ± 0.26 and 5.28 ± 0.12.
EETESSDDVEVLTLKKFKGDLAYR [C8orf76] had a protein stability index (treatment: DMSO) of 4.71 ± 0.19 and a protein stability index (treatment: MLN4924 1 uM, 8 h) of 4.61 ± 0.16.
With KFLASHFPNRTDQQCQYRWLRVLN [MYBL2], the protein stability index reads like this: (treatment: DMSO) 2.19 ± 0.46; (treatment: MLN4924 1 uM, 8 h) 2.2 ± 0.29.
Consider RYALQLQQIQGLISSIEAQLSELR [KRT13], for which the protein stability index worked out at 3.17 ± 0.14 (treatment: DMSO) and 3.38 ± 0.35 (treatment: MLN4924 1 uM, 8 h).
Consider HHLGSGSGAGGTGGPAGQAGRGGA [MYOZ1], for which the protein stability index runs as follows: (treatment: DMSO) 4.9 ± 0.35; (treatment: MLN4924 1 uM, 8 h) 5.01 ± 0.33.
The matching figures for AAAATVLLRTARVRRECWFLPTAL [SLC19A2]: 2.51 ± 0.54 and 2.28 ± 0.42.
On the same counts, the results for AVAQTAHLPADSEVTLEANPTSAP [RSAD1] are 5.4 ± 0.14 and 5.35 ± 0.23.
The matching figures for AQSPGAVEEILDRENKRMADSLAS [BET1L]: 5.12 ± 0.14 and 5.35 ± 0.26.
In the case of KPGPITLTVAKCWDPSPRGCFTLP [DVL3], the protein stability index was 2.41 ± 0.32 (treatment: DMSO) and 2.59 ± 0.11 (treatment: MLN4924 1 uM, 8 h).
